We go through one molecule from patent publication US20200181634A1 (MENDEL BIOTECHNOLOGY, published 2020).

The target in the assay is T1, SALT TOLERANCE HOMOLOG2 (STH2) (Arabidopsis thaliana, UniProt Q9LQZ7 1-331, limits assumed).
T1 construct: also called G1482
T1 sequence: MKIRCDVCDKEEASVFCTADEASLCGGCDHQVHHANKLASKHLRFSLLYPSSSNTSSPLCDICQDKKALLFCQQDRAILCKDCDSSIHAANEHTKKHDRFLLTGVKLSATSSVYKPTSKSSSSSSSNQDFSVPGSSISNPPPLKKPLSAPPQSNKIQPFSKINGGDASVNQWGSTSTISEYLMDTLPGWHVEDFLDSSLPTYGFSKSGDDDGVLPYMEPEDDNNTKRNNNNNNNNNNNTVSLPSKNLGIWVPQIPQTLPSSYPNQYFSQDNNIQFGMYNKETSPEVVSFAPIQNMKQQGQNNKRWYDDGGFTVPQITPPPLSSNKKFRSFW
Description: in vitro and protoplast based studies (methods not described).

B1: G1988 (other)
chain: MVSFCELCGAEADLHCAADSAFLCRSCDAKFHASNFLFARHFRRVICPNCKSLTQNFVSGPLLPWPPRTTCCSESSSSSCCSSLDCVSSSELSSTTRDVNRARGRENRVNAKAVAVTVADGIFVNWCGKLGLNRDLTNAVVSYASLALAVETRPRATKRVFLAAAFWFGVKNTTTWQNLKKVEDVTGVSAGMIRAVESKLARAMTQQLRRWRVDSEEGWAENDNV
notes: also called B-box zinc finger transcription factor G1988
For the molecule B1, the binding result is listed as “binds”.
